Columns and labels:
RBcel1 [1] = molecular target: T1, RBcel1 (uncultured bacterium, UniProt Z9EI17H729, Y201F); assay: X-ray crystal structure, […] Å; conditions: co-crystal with 1 mM G3, pH 7; covalent to Glu245 (monomer D, occupancy 0.13); also +1 to +3 subsites (monomer C)
T1 sequence (Z9EI17H729 1-321 Y201F): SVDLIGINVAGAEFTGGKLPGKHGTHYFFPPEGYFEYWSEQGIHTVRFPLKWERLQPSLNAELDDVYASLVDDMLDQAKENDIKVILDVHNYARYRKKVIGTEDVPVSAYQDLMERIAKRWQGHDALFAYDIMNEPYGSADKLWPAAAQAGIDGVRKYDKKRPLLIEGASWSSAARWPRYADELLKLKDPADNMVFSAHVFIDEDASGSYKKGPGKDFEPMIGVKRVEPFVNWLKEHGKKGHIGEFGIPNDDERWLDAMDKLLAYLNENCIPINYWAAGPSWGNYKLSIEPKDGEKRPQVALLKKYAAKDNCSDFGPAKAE

RBcel1 [2] = molecular target: T2, RBcel1 (uncultured bacterium, UniProt Z9EI17H729, E135Q); assay: X-ray crystal structure, […] Å; assay type: binding; conditions: co-crystal with 1 mM G3, pH 7.4; subsites +1 to +3 (monomer A) and -4 to -2 (monomer B)
T2 construct: 321 residues
T2 sequence (Z9EI17H729 1-321 E135Q): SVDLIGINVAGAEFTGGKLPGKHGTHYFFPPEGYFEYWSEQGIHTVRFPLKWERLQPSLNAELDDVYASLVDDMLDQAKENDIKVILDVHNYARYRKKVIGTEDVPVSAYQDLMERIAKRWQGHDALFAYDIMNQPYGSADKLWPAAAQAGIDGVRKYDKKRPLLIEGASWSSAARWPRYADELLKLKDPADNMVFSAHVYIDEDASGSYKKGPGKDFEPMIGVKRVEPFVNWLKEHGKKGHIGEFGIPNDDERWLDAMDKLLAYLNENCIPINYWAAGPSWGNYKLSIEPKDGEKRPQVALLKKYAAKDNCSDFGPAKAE

purified protein [3] = substrate: O=[N+]([O-])c1ccc(O[C@@H]2O[C@H](CO)[C@@H](O[C@@H]3O[C@H](CO)[C@@H](O[C@@H]4O[C@H](CO)[C@@H](O)[C@H](O)[C@H]4O)[C@H](O)[C@H]3O)[C@H](O)[C@H]2O)c(Cl)c1; assay: purified protein; assay type: biochemical, uncultured bacterium; conditions: 20 mM sodium phosphate pH 6.5, 37°C
purified protein [4] = substrate: O=[N+]([O-])c1ccc(O[C@@H]2O[C@H](CO)[C@@H](O[C@@H]3O[C@H](CO)[C@@H](O[C@@H]4O[C@H](CO)[C@@H](O[C@@H]5O[C@H](CO)[C@@H](O)[C@H](O)[C@H]5O)[C@H](O)[C@H]4O)[C@H](O)[C@H]3O)[C@H](O)[C@H]2O)c(Cl)c1; assay: purified protein; assay type: biochemical, uncultured bacterium; conditions: 20 mM sodium phosphate pH 6.5, 37°C, apparent parameters, text b31 prints µM, table mM (agrees with kcat/Km)
purified protein [5] = substrate: O=[N+]([O-])c1ccc(O[C@@H]2O[C@H](CO)[C@@H](O[C@@H]3O[C@H](CO)[C@@H](O[C@@H]4O[C@H](CO)[C@@H](O[C@@H]5O[C@H](CO)[C@@H](O[C@@H]6O[C@H](CO)[C@@H](O)[C@H](O)[C@H]6O)[C@H](O)[C@H]5O)[C@H](O)[C@H]4O)[C@H](O)[C@H]3O)[C@H](O)[C@H]2O)c(Cl)c1; assay: purified protein; assay type: biochemical, uncultured bacterium; conditions: 20 mM sodium phosphate pH 6.5, 37°C, apparent parameters, printed kcat disagrees with printed kcat/Km (tenfold)
[6] = 36 µM enzyme, methods name the substrate ClPNP β-G1, results ClPNP β-G3
[7] = 22 µM enzyme, methods name the substrate ClPNP β-G1, results ClPNP β-G3
[8] = apparent parameters, text b31 prints µM, table mM (agrees with kcat/Km)

In the case of OC[C@H]1O[C@@H](O[C@H]2[C@H](O)[C@@H](O)[C@H](O[C@H]3[C@H](O)[C@@H](O)C(O)O[C@@H]3CO)O[C@@H]2CO)[C@H](O)[C@@H](O)[C@@H]1O (stereo partly shown) [G3, cellotriose], the “X-ray crystal structure, 1.75 Å” value (RBcel1 [1]) is reported as “G3 and G4 were placed in the negative subsites” and the “X-ray crystal structure, 1.73 Å” value (RBcel1 [2]) is reported as “each in complex with a differently positioned G3 molecule”.

B1: RBcel1 (uncultured bacterium; E135Q) (protein)
chain: SVDLIGINVAGAEFTGGKLPGKHGTHYFFPPEGYFEYWSEQGIHTVRFPLKWERLQPSLNAELDDVYASLVDDMLDQAKENDIKVILDVHNYARYRKKVIGTEDVPVSAYQDLMERIAKRWQGHDALFAYDIMNQPYGSADKLWPAAAQAGIDGVRKYDKKRPLLIEGASWSSAARWPRYADELLKLKDPADNMVFSAHVYIDEDASGSYKKGPGKDFEPMIGVKRVEPFVNWLKEHGKKGHIGEFGIPNDDERWLDAMDKLLAYLNENCIPINYWAAGPSWGNYKLSIEPKDGEKRPQVALLKKYAAKDNCSDFGPAKAE
notes: 321 residues
In the case of B1, the Km (purified protein [3]; [6]) is reported as 263 ± 41 µM and the kcat (purified protein [3]; [6]) is reported as 0.219 ± 0.009 × 10^-3 min^-1.

B2: RBcel1 (uncultured bacterium; Y201F) (protein)
chain: SVDLIGINVAGAEFTGGKLPGKHGTHYFFPPEGYFEYWSEQGIHTVRFPLKWERLQPSLNAELDDVYASLVDDMLDQAKENDIKVILDVHNYARYRKKVIGTEDVPVSAYQDLMERIAKRWQGHDALFAYDIMNEPYGSADKLWPAAAQAGIDGVRKYDKKRPLLIEGASWSSAARWPRYADELLKLKDPADNMVFSAHVFIDEDASGSYKKGPGKDFEPMIGVKRVEPFVNWLKEHGKKGHIGEFGIPNDDERWLDAMDKLLAYLNENCIPINYWAAGPSWGNYKLSIEPKDGEKRPQVALLKKYAAKDNCSDFGPAKAE
notes: 321 residues
B2 was tested, and the Km (purified protein [3]; [7]) was 77 ± 10 µM and the kcat (purified protein [3]; [7]) was 0.194 ± 0.023 × 10^-3 min^-1.

B3: RBcel1 (uncultured bacterium) (protein)
chain: SVDLIGINVAGAEFTGGKLPGKHGTHYFFPPEGYFEYWSEQGIHTVRFPLKWERLQPSLNAELDDVYASLVDDMLDQAKENDIKVILDVHNYARYRKKVIGTEDVPVSAYQDLMERIAKRWQGHDALFAYDIMNEPYGSADKLWPAAAQAGIDGVRKYDKKRPLLIEGASWSSAARWPRYADELLKLKDPADNMVFSAHVYIDEDASGSYKKGPGKDFEPMIGVKRVEPFVNWLKEHGKKGHIGEFGIPNDDERWLDAMDKLLAYLNENCIPINYWAAGPSWGNYKLSIEPKDGEKRPQVALLKKYAAKDNCSDFGPAKAE
notes: 321 residues
With B3 the Km (purified protein [3]; [8]) was 2370 ± 260 µM, the kcat (purified protein [3]; [8]) was 0.52 ± 0.02 s⁻¹ and the kcat/Km (purified protein [3]; [8]) was 220 ± 20 M⁻¹ s⁻¹. The Km (purified protein [4]) was 300 ± 30 µM, the kcat (purified protein [4]) was 0.58 ± 0.01 s⁻¹ and the kcat/Km (purified protein [4]) was 1880 ± 190 M⁻¹ s⁻¹. For the same molecule, the Km (purified protein [5]) was 340 ± 50 µM.

— article PMC8900817, “Highlighting the factors governing transglycosylation in the GH5_5 endo-1,4-β-glucanase RBcel1” (Acta Crystallographica. Section D, Structural Biology, 2022)
